Results as given in the DeepSol protein solubility set.

Assay: soluble on expression in E. coli; label from the status in PepcDB or PDB records

Row | Sequence | soluble on expression in E. coli
1 | GMAGKVEARKAALREKLIDLAEAQIEAEGLASLRARELARQADCAVGAIYTHFQDLNALTLEVNGRTFARLGAAVGAVVADGQDDHPNERLIAMSHAYLAFAREHPKLWRALFDVEMRSDGPVPQWYGHAMAQLFSYITTPLAKIFPESDDAELDLMTRTLFSSVHGIVLLGLENRISGVPGEQLKTMIRLLLEQVGR | soluble
2 | MAFANLRKVLISDSLDPCCRKILQDGGLQVVEKQNLSKEELIAELQDCEGLIVRSATKVTADVINAAEKLQVVGRAGTGVDNVDLEAATRKGILVMNTPNGNSLSAAELTCGMIMCLARQIPQATASMKDGKWERKKFMGTELNGKTLGILGLGRIGREVATRMQSFGMKTIGYDPIISPEVSASFGVQQLPLEEIWPLCDFITVHTPLLPSTTGLLNDNTFAQCKKGVRVVNCARGGIVDEGALLRALQSGQCAGAALDVFTEEPPRDRALVDHENVISCPHLGASTKEAQSRCGEEIAVQFVDMVKGKSLTGVVNAQALTSAFSPHTKPWIGLAEALGTLMRAWAGSPKGTIQVITQGTSLKNAGNCLSPAVIVGLLKEASKQADVNLVNAKLLVKEAGLNVTTSHSPAAPGEQGFGECLLAVALAGAPYQAVGLVQGTTPVLQGLNGAVFRPEVPLRRDLPLLLFRTQTSDPAMLPTMIGLLAEAGVRLLSYQTSLVSDGETWHVMGISSLLPSLEAWKQHVTEAFQFHF | soluble
3 | MAPKVFYISDGTAITAEVFGHAVLSQFPLEFESLTIPFVETLAKAENVKRQINDCFITTGERPLVFHSIVKPEIRDIIYSSEGLDYDFLNTFVAPLEQHLGVSASPVLHRTHGKANQGYEARIDAINFAMDNDDGQTMKHMDQADLILLGVSRCGKTPSSLYLSMQFGIKAANYPFTEDDMDNLKLPEALKRNKKKLFGLTIDPVRLHEIRQSRMENSRYSSLKQCRLEVKEVEMMFKRERIPYIDTTNHSVEEIATKILDVTGLERHMFMAGDPLEHHHHHH | soluble
4 | MGSDKIHHHHHHMENSKVSLKIDVLVAEIGSTTTVVNAFHDINTNNPIFLGQGQAPTTVFEGGDVRNGLSGAIKDLANKLSVDDIEYNDMFATSSAAGGLKMTVHGLVYDMTVKAAKEAALGAGAVIRQITSGRIKRTDLNKIKEINPNIILIAGGVDYGERDTAIYNAEMIASMNLGIPVIYAGNVENQEEIRLIFEDTNYKLYITENVYPKIDLLNIEPTRRIIQSVFEEHITTAPGMKYIKEMVNENITPTPGAVMEASKLLYKNIGDLLTLDVGGATTDVHSVTDGSDYINKILVNPEPTAKRSVEGDLGVYVNMKNIVEVIGKENLQSELSIDIDAVIENYPPIPKSKEEILFVERLTKEAVVKAMLRHSGKIRNIYGTTGKVKIAEGKDLTEVRYIVGTGGALTRLPSRIEILDNMLKYNKNNELLFPKEKTKILIDNDYIMASMGVLSKKYEEASLKLLLKSLNFEEERLCILG | not soluble
5 | MSKRKVAIIGSGNIGTDLMIKILRHGQHLEMAVMVGIDPQSDGLARARRMGVATTHEGVIGLMNMPEFADIDIVFDATSAGAHVKNDAALREAKPDIRLIDLTPAAIGPYCVPVVNLEANVDQLNVNMVTCGGQATIPMVAAVSRVARVHYAEIIASIASKSAGPGTRANIDEFTETTSRAIEVVGGAAKGKAIIVLNPAEPPLMMRDTVYVLSDEASQDDIEASINEMAEAVQAYVPGYRLKQRVQFEVIPQDKPVNLPGVGQFSGLKTAVWLEVEGAAHYLPAYAGNLDIMTSSALATAEKMAQSLARKAGEAA | soluble
6 | MDLLVVVPHPDDESFGAGGALLLAKEAGLKTGVLTLTRGEAGRTLGLCPPKELPQVRVEELKRAAAVLQVDYLEVLDYPNALPEGAQGERGPATGRGLADHPEAVEAIRTRLLRLRPRFVLTFPPDGINGHPDHVAASRYAREAAQGLAQVVYLVRPDGPWPVTHRLRLPERVLARKLQAIAQHKTQALSVLKFLEMFPERLWTETFHLPGASGLREGPWW | soluble
7 | QSRTPTIFFHGYGSSANAETHMTNAAKKAGVTKTVILAYVDQNGHVTLVGKIPKNAINPIVKVNFADNRNADYDTDAKYAKAVVSKLQKTYHFKKMNMVGHSMGNMAINFYMLANAEDKTLPQLQKQVDIAGHFDGIKNYDLPQNLTINAKTGQPNAMTAAYKRLLKLQERYPKDQVDVLNLYGDKGDGSDGIVTNDSSRTLKYLIGERAKSYQEHRFTGKLAGHSKLHENPQVDKFLINFLWGK | not soluble
8 | MAEKTRYSDAELEEFRAIIMEKLELAQRDYDQLKMSLMGLDGNDTDDTSPTYKVLEEGANTLSKEETTRLAQRQLKFIQGLQAALVRIENKTYGICRETGKLIPAERLRAVPHATLSIEAKNSGKK | not soluble
9 | MKTGYVLKGRVIDGTLGPALEQGAVVTEGERIAWVGPQSGLPAQYAGDRHTVVDLPGRTIMPGLIDAHTHISFGESRSEEENALYTPVEFRTAKALWYARKVLQAGVTSAFDAATSYNIAQAVRDAIDTGMFEGPRFTVSGKQLTNHHGLEDSFPNEMAFPPGQSAVLVKTREDLVEAIHYQVKDEVDAIKVSGSNDNLITPDALGSSAFTYEEFKIIADETHRLGRLCSVHARSRDAALYAAQAGFDNLFHASYIDDEGIEACLKNGCVITPTLTLLVNLVEAKQSHAGASSAQAFRQEIEAASVNLRRAYDAGVPLLAGSESGWSPVPYGHWHAREMEIFVKLLGLTPLQAIHANTLACTRLLARHGHEVGKLEASRLADVLVLPGNPLEDITLLQRPSRFDYIFKGGTPVDRTAPAPRVRKWYERTKIFLAGVYEYDQENACGRLVQ | not soluble
10 | LTLPGIANLRRLRVDDVAIPKVEIVAVPVDIGKEDLVAVFREHGFSRLPVYRETLDQPLGLVLLKDLALQHGFNGNGSFDLKTLLRPLLYAPPSMPIGVLLQKMQRERVHMALVIDEYGGVDGLVTIEDLIETVIGEIEDEHDEVEGPLWTLEKPGVYMAQSRTPLDEFEAEIGLRLRREEEDEEIDTLGGLV | not soluble
11 | MSKLVGNLIPNTFFITKGSGESDLELHAGSYHMALFDAGISDFNIMTYSSVLPATAHLATMDEIDLPPFGSELKTIMAVSHGYQDEFVSAGVVYAWMYKDENFDEKAGGLVCEVSGRYRIEELESRLIRVINDLHQKTYSQYYLGELNFITEGITIEKRYGTALAGLCFMDFIQPEVQKK | not soluble
12 | MGSDKIHHHHHHMSILYEERLDGALPDVDRTSVLMALREHVPGLEILHTDEEIIPYECDGLSAYRTRPLLVVLPKQMEQVTAILAVCHRLRVPVVTRGAGTGLSGGALPLEKGVLLVMARFKEILDINPVGRRARVQPGVRNLAISQAVAPHNLYYAPDPSSQIACSIGGNVAENAGGVHCLKYGLTVHNLLKIEVQTLDGEALTLGSDALDSPGFDLLALFTGSEGMLGVTTEVTVKLLPKPPVARVLLASFDSVEKAGLAVGDIIANGIIPGGLEMMDNLSIRAAEDFIHAGYPVDAEAILLCELDGVESDVQEDCERVNDILLKAGATDVRLAQDEAERVRFWAGRKNAFPAVGRISPDYYCMDGTIPRRALPGVLEGIARLSQQYDLRVANVFHAGDGNMHPLILFDANEPGEFARAEELGGKILELCVEVGGSISGEHGIGREKINQMCAQFNSDEITTFHAVKAAFDPDGLLNPGKNIPTLHRCAEFGAMHVHHGHLPFPELERF | not soluble
13 | ARLKHLEDEPGHEDEGKRPLFHFSAVERIARIGVPSMIQQSIVSISMLMMQGLVNSYGSVFIAGYTAATKIDSLAMMPNMNFSNAMSSYTAQNIGAGKIERVKDGYKANM | not soluble
14 | MTSRGDSREKILHTASRLSQLQGYHATGLNQIVKESGAPKGSLYHFFPNGKEELAIEAVTYTGKIVEHLIQQSMDESSDPVEAIQLFIKKTASQFDNTESIKGIPVGLLASETALISEPLRTVCMKVFKSWEAVFARKLMENGFAEEEANQLGTLINSMIEGGIMLSLTNKDKTPLLLIAEQIPVLVRKKG | soluble
15 | RQRSLSTSGESLYHVLGLDKNATSDDIKKSYRKLALKYHPDKNPDNPEAADKFKEINNAHAILTDATKRNIYDKYGSLGLYVAEQFGEENVNTYFV | soluble
16 | MQTQARPPVPQGPRFNHPATPQQVRRPINAPLPGQTAQIQGNRGPQPPKKKKRYADKLIQPKVRELVPESQAYMDLLAFEQKLDSTITRKKIDVQEALKRPQKIKKRLRIYISHTFIAGKEPEKEGDDASVPMWELRVEGRLLDDMQHPTVGANPRPAPKRKFSSFFKSLVIELDKDIYGPDNHLVEWHRTPQTNETDGFQVKRPGDRPVKCTILLLLDYQPMKFKLHPRLAKVLGIAAETRPRIIEALWQYIKTHKLQDPQDRDTINNDLFLEQCFGVSKMRFMEIPQRLHQLLQQPDPLVLNHIIQRPDDGQDKTSACYDIDVELEDPVKQQMANFVHNQTNANDIQLLDQKIFDLVDQINEMKLRRDFFLRFSNEPSGFIKKWVVSQNSDLKTLTESSGDGESDRYATTYSTTDTDEGVSRYMYQKIQQKRAELEQSLGIRNN | not soluble
17 | MGSDKIHHHHHHMKTKLILVGGFLGVGKTTLLGEAARRLSQTGRKVGLITNDQASELVDTVYLEQTGTEVSEVSGSCFCCNFPGFMEAIDHVNAHKPADIIIAEPVGSCTDLSATILQPLKEKFADKLSVAPLSVLVDPRQLTDILDGRTAGLHPSAAYILRKQLEEADLIVINKTDLLTPLAVEILKKRTAEEWPLASVYAISAKTGEGLAAWLHEAQQRSGAGTHLAEVDYDTYAEGEAVLGWLNATIELQSQGADWDTLGRNLLNSLRSRFGSLNAAIGHVKLLIATDQGYVIGNITGAKDSLDIRESAGTGRKAQLTLNARVQMEPDLLEEIVKEEIAKVQADKITATIAVLKCLKPGRPNPTYRYGTIVG | not soluble
18 | MQFYQPPAQQHLARSTPPPNFAQPYGMGMRPHEEETRQIMNLDSQQTHSSSPTSSWNQPYGQMSNPYQQRGPSLYAPPGPPVMHQNGPPGVVPTSNPYYQPPVPPQHHHMQPQAPMMSPGMHGQQQQQPYYNTQSPLTGTPPSMSYGTPQIPAPPPTSNGSAPMFNFSKPRNSNEGSLTNGGGGAAHRRKKHNDLSSPRYSSNSNEDVDGSVFPDMADFPLLDVVQSKAKKDAGRKPCRPHLCEQSRMLISRVCHFHREFIKRLPARHPLVNSPFSKPDQWTSQIMGISLATVRKCIDMAVDEEVFTRCTDKNLVNLTPSERAEREELLSKLSTVFEDEKSLGAGTAGMTIAEYSPRRSYSNTLLRQSTDDKSSTSSYNANGGEYGGSTETTLLNLDDHSNSSKDYGMTPTTPAAPVASSVTSDLGGGGGQVFEEIGAIGGGMSTESSLDDKSAVKIPKRGRPCKAPGTTATNKSTKRKESQDGGQEVGGPVEDKDDHEKKTEDEDETNEETEKIEVQQADQAEREDDAASSEGTNRSETATPELATDTTAVAKKTRSAAARRKNTKTVDDEFAGATKKKRGSVTAATAGIGGDDENSDHKMVTRARSRQP | not soluble
19 | MGSDKIHHHHHHMKKKYVTIRDIAEKAGVSINTVSRALNNKPDISEETRRKILKIAQELGYVKNATASSLRSKQTNIVGVIIADSANPFYAEVLKGIEAASRKYGYQIMLMNTERIYENEEKAIEVLLQRRVDGLLITPVQDRSDDIKTLIERKVPFVIVGRHFEELEVDEIHSDEVKGGYLATRHLIERGRKNIIMISGYLFKSAAYMRLEGYRKALKEYGIPFSEKMIIETDIDIESGYRAMREAIEKGLEFEAVFCYNDLLAFGVIKALKECGYRIPEDVAVVGYDDIVYSSFICPSLTTVRIKKFEMGFEAFRMLLQRLKGRRKKRKRVILDVELVVRESG | not soluble
20 | MSGELRVRRASSWELDLILKEAEKYGELLHEFFCVVEGKYRDVYAVNEEVWKIIEDINMRPYSLGTFVGTIRVDENLVEKFYPNLEFFSLIKLEKNYVILGPKASFLFTTGKDAPKEAVREIKWQGSKRVVVLNDLGDIIGIGLINPKSDRRFIKNLKDVGEFLRR | soluble
